Values quoted from earlier work, collected in article PMC4452390.
pKd: −log10 of the molar value.

Molecular target: EGFR (Homo sapiens) (UniProt P00533)

For EGF (from UniProt P01133), the pKd is given as 8.52.
